Experimental data taken from article doi:10.1101/189324.
Where two headings read alike, the source gives them in different places.

Key:
[1] = target: Insulin (purified, used in vitro)
[2] = target: Insulin (purified, used in vitro); assay: BLI
[3] = target: Insulin (purified, used in vitro); assay: BLI; remark: listed apart in the source

B1: Recombinant His-tagged secretagogin (SCGN) (natural protein)
chain: MDNARRKTPARLDAACFWQIWQRFDKEEKGYIRETELDAFFDHLLAKSGTEDTLMEENVQKVKEQLMTSHNVSKEGRILMKELASMFLSEDENFLLFFRLETPLDNSVEFMQIWRKYDADSSGFISAAELCNFLRDLFLHHKKNISEAELEEYTSTMMKIFDKNKDGRLDLNDLARILALQENFLLQFKMDASSTEERKRDFEKIFAHYDVSKTGALEGPEVDGFVKDMMELVQPSISGVDLDKFREILLRHCDVNKDGKIQKSELALCLGLKINP
[1]
  ThT fluorescence, heat-induced fibrillation of insulin with apo-SCGN (1:2 ratio): 50%
[2]
  Kd: 1.84 µM
[3]
  Kd: 1.45 µM
